Values quoted from earlier work, collected in US20240424090A1, “COMPOSITIONS AND METHODS FOR USE IN IMMUNOTHERAPY” (INSTITUT CURIE, priority 2021, published 2024).

Assays:
FCGRIIIA = FCGRIIIA (Homo sapiens, UniProt P08637)
FCGRIIA = biological target: T1, FCGRIIA (Homo sapiens, UniProt P12318)
T1 sequence (P12318 34-317): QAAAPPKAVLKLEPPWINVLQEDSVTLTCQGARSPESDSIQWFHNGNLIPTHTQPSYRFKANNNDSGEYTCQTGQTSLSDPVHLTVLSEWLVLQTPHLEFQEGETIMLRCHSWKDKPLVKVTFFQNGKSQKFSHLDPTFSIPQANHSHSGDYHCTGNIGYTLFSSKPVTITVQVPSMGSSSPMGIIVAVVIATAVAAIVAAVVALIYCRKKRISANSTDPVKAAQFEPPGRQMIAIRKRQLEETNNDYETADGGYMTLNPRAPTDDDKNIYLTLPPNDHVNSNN

Sequence of FCGRIIIA (P08637 17-254): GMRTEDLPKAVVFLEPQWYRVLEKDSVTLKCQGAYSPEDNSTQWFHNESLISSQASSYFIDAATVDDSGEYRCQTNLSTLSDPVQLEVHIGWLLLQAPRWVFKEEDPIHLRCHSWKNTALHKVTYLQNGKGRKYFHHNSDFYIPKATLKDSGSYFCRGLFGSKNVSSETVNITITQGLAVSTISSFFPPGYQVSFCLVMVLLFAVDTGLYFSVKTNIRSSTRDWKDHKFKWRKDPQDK

For Tremelimumab: IgG2 anti-CTLA-4 antibody, the “binding to FCGRIIIA” value (FCGRIIIA) is given as “not” and the “binding to FCGRIIA” value (FCGRIIA) is given as “binds well”.
